Consider seven substances from publication PMC11054257.

Usually stoichiometry N stands for the number of molecules, sites or subunits per partner or assembly.

What all share (experiment): SDS-PAGE and Western blot of whole cells (oligomer bands that withstand SDS); 1 OD600 of induced cells in SDS sample buffer, 4~12% SDS-PAGE, PVDF, anti-Flag tag antibody; cells treated with proteinase K or not; positions of monomeric, dimeric and trimeric forms called putative
The target in assay [1] is SadA^1292 fused with N-terminal Flag×3-UreBm-mScarlet (from pSadBA^1292-FUM) (Salmonella typhimurium | Helicobacter pylori SS1) (UniProt P69996).
Assay [2] has as its target SadA^644 fused with Flag×3 and the UreB epitopes UreB158–172aa and UreB349–363aa (from pSadBA^644-FU2) (Salmonella typhimurium | Helicobacter pylori SS1) (UniProt P69996).
For assay [3], the target named is SadA^877 fused with Flag×3 and the UreB epitopes UreB158–172aa and UreB349–363aa (from pSadBA^877-FU2) (Salmonella typhimurium | Helicobacter pylori SS1) (UniProt P69996).
The target of assay [4] is SadA^877 fused with N-terminal Flag×3-mScarlet (from pSadBA^877-FM) (Salmonella typhimurium).
In assay [5] the target is SadA^1292 fused with N-terminal Flag×3-mScarlet (from pSadBA^1292-FM) (Salmonella typhimurium).
The target in assay [6] is SadA^1292 fused with Flag×3 and the UreB epitopes UreB158–172aa and UreB349–363aa (from pSadBA^1292-FU2) (Salmonella typhimurium | Helicobacter pylori SS1) (UniProt P69996).
The target of assay [7] is SadA^1171 fused with Flag×3 and the UreB epitopes UreB158–172aa and UreB349–363aa (from pSadBA^1171-FU2) (Salmonella typhimurium | Helicobacter pylori SS1) (UniProt P69996).

As to “SadA^1292 fused with N-terminal Flag×3-UreBm-mScarlet (from pSadBA^1292-FUM) (from UniProt P69996 111-377)”, the stoichiometry N in assay [1] is 3.
On to “SadA^644 fused with Flag×3 and the UreB epitopes UreB158–172aa and UreB349–363aa (from pSadBA^644-FU2) (from UniProt P69996)”, for which, in assay [2], the stoichiometry N was 3.
As to “SadA^877 fused with Flag×3 and the UreB epitopes UreB158–172aa and UreB349–363aa (from pSadBA^877-FU2) (from UniProt P69996)”, the stoichiometry N in assay [3] was found to be 3.
Regarding “SadA^877 fused with N-terminal Flag×3-mScarlet (from pSadBA^877-FM)”, the stoichiometry N in assay [4] is 3.
For the substance “SadA^1292 fused with N-terminal Flag×3-mScarlet (from pSadBA^1292-FM)”, in assay [5], the stoichiometry N worked out at 3.
Substance “SadA^1292 fused with Flag×3 and the UreB epitopes UreB158–172aa and UreB349–363aa (from pSadBA^1292-FU2) (from UniProt P69996)” yielded a stoichiometry N in assay [6] of 3.
With “SadA^1171 fused with Flag×3 and the UreB epitopes UreB158–172aa and UreB349–363aa (from pSadBA^1171-FU2) (from UniProt P69996)”, the stoichiometry N in assay [7] amounted to 3.
